Reference: patent US10669350B2, “Antigen-binding constructs that bind to and inhibit catalase and/or superoxide dismutase as well as pharmaceutical compositions containing them for tumor therapy” (priority 2015, dated 2020)

Tests used:
[1] = molecular target: T1, human catalase (Homo sapiens, UniProt P04040); experiment: ELISA selection of clones binding to human catalase
T1 sequence (P04040 2-527 limits assumed): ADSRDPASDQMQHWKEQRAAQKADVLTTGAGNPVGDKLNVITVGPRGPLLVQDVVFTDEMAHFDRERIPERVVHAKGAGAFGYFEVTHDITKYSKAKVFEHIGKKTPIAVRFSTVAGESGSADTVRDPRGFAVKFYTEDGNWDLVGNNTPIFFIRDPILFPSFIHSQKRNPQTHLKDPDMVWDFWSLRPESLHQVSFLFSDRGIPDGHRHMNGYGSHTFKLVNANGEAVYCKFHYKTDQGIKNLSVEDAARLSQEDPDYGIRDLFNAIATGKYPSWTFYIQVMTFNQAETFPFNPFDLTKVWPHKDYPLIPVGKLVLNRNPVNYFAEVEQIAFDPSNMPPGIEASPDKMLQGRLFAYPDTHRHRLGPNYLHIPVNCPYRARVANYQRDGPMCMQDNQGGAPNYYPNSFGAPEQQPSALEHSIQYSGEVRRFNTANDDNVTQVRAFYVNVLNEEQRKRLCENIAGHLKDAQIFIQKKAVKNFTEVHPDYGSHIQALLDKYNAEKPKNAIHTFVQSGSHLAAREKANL
Description: […] […] In a second run, by employing the cell culture system described by Heinzelmann and Bauer (Heinzelmann S. and Bauer G. Multiple protective functions of catalase against intercellular apoptosis-inducing ROS signaling of human tumor cells, Biol. Chem. 391, 675-693, 2010) it was checked which one of the single domain VHH fragments binding to catalase actually results in an inhibition of the catalase, what is expressed as ROS-dependent apoptosis induction in the cells. […] The clones underlying the single domain VHH fragments were sequenced by standard methods and the amino acid sequence was determined therefrom.

[2] = molecular target: T1, human catalase; experiment: Check for inhibition (neutralization) of catalase, expressed as ROS-dependent apoptosis induction in cell culture system; type: cell-based; design: catalase-neutralizing single domain VHH fragments only neutralize the membranous catalase of tumor cells; endogenous in cells; host or cells: MKN-45 human gastric carcinoma cells
Description: For the determination of the neutralizing effect of single domain VHH or Fab fragments directed against catalase a test system is suitable that is based on the apoptosis-inducing effect of H2O2 and the degradation of H2O2 by catalase. Here, as the cellular test system both non-malignant and malignant cells can be employed. It is only required that apoptosis induction is quantitatively determinable in the selected cell system. As the H2O2 source, H2O2-generating glucose oxidase (GOX) is preferred over the direct addition of H2O2, because the continuous production of H2O2 by GOX (by using glucose from the culture medium of the cells) allows a very precise adjustment of the H2O2 flux. The test system is based on the inhibition of the apoptosis induction by GOX mediated by catalase and the restoration of the apoptosis induction by catalase-neutralizing single domain VHH or Fab fragments. […] For that, in general depending on the cell system, GOX concentrations between 0.1 and 40 mU/ml are required. In a second step, the concentration of human catalase is determined that is just sufficient to abolish the effect achieved by GOX. […] After successful determination of the suitable concentrations of GOX and catalase then the actual experiment for the determination of the catalase-neutralizing effect of single domain VHH or Fab fragments can be performed. For that, the selected catalase concentration is pre-incubated for 20 minutes with selected concentrations of the single domain VHH or Fab fragments to be tested. Subsequently, said mixture together with the concentration of GOX determined to be suitable is added to the cells and apoptosis induction is measured. A reliable neutralizing effect of the single domain VHH or Fab fragments is obtained if the inhibiting effect of the catalase on the GOX-mediated apoptosis induction was abolished by at least 90%, i.e. if 90% of the apoptosis induction value is achieved that is shown in control preparations without addition of catalase. If there is achieved an abolition of the inhibiting effect of catalase of at least 50% there may be assumed a significant inhibiting effect of the tested single domain VHH or Fab fragment. […]
[…] In a second run, by employing the cell culture system described by Heinzelmann and Bauer (Heinzelmann S. and Bauer G. Multiple protective functions of catalase against intercellular apoptosis-inducing ROS signaling of human tumor cells, Biol. Chem. 391, 675-693, 2010) it was checked which one of the single domain VHH fragments binding to catalase actually results in an inhibition of the catalase, what is expressed as ROS-dependent apoptosis induction in the cells. […] The clones underlying the single domain VHH fragments were sequenced by standard methods and the amino acid sequence was determined therefrom.

[3] = tested on: MKN-45 gastric carcinoma cells; experiment: Standard preparation for autocrine ROS-controlled apoptosis induction in tumor cells (percentage of apoptotic cells); type: cell-based, human
Description: The experiments shown in FIG. 13-24 were carried out with a standard preparation for the apoptosis induction that is based on the method performed in Heinzelmann and Bauer 2010. The tumor cells used were taken from an optimally growing semi-sealed culture, centrifuged and placed in fresh medium. The test was performed in 96-well cell culture plates with 12 500 MKN-45 cells/100 μl medium or 10 000 SHEP cells/100 μl medium. MKN-45 cells grow in suspension, SHEP cells are adherent. The tests with SHEP cells were started as soon as the cells had grown on. By adding increasing concentrations of single domain VHH fragments that either inhibit catalase or SOD the protection of the tumor cells from their own ROS signaling was annulled so that based on the cell-owned extracellular superoxide anion production the NO/peroxynitrite signal path and the HOCl path (with MKN-45 cells) or in case of the SHEP cells only the NO/peroxynitrite path could start when the cells were incubated at 37° C. The analysis of the signal paths was carried out by the application of inhibitors of the NADPH oxidase (AEBSF), the HOCl scavenger taurine, the peroxynitrite scavenger FeTPPS and the singlet oxygen scavenger histidine. In some experiments for comparison instead of the single domain VHH fragments either recombinant Fab fragments or monoclonal antibodies were applied. This is indicated in the respective illustrations.
Double preparations were examined at the times shown in the text by means of phase contrast reverse microscopy for the percentage of apoptotic cells. Here, the classical apoptosis criteria described and documented in Heinzelmann and Bauer 2010 such as condensation of the nucleus, fragmentation of the nucleus, and membrane blebbing were used. Per single preparation at least 250 randomly selected cells were examined for the presence of apoptosis features. […]

[4] = molecular target: T2, human SOD1 (Homo sapiens, UniProt P00441); experiment: ELISA selection of clones binding to human SOD1
Description: The preparation was by immunizing alpacas with human SOD1 (SOD1=Cu/ZnSOD [EC 1.15.1.1] purified from human erythrocytes, obtained from Sigma (Schnelldorf), catalogue number S 9636) under supervision of a veterinary, obtaining RNA from the B cells of the animals, reverse transcription, cloning in E. coli and isolation via the phage display technology. […] In a second run, by employing the cell culture system described by Heinzelmann and Bauer (Multiple protective functions of catalase against intercellular apoptosis-inducing ROS signaling of human tumor cells, Biol. Chem. 391, 675-693, 2010) it was checked which of the single domain VHH fragments binding to SOD actually results in an inhibition of SOD, what is expressed in the tumor system used as ROS-dependent apoptosis induction in the cells, since by the inhibition of SOD the concentration of free superoxide anions dramatically increases due to the absence of the enzymatic dismutation and results in a parallel indirect inhibition of catalase. In the following, this is expressed as ROS-dependent apoptosis induction. In a further control trial the specific inhibition of SOD by recombinant single domain VHH fragments was verified by the fact that the increasing effect of these fragments on apoptosis induction by exogenously added HOCl was examined, as described in Bauer 2013 (HOCl-dependent singlet oxygen and hydroxyl radical generation modulate and induce apoptosis of malignant cells. Anticancer Res 33: 3589-3602, 2013).

[5] = molecular target: T2, human SOD1; experiment: Check for inhibition (neutralization) of SOD, ROS-dependent apoptosis induction and HOCl control trial; type: cell-based; design: endogenous in cells; host or cells: MKN-45 human gastric carcinoma cells
Description: Thus, the inhibition of the SOD mediated by single domain VHH or Fab fragments (comparison) can be determined by the fact that the apoptosis induction of tumor cells by exogenously added HOCl is employed as the test system. HOCl in a concentration depending manner induces apoptosis that is based on the interaction between HOCl and superoxide anions that results in the formation of aggressive hydroxyl radicals (Bauer G. HOCl-dependent singlet oxygen and hydroxyl radical generation modulate and induce apoptosis of malignant cells. Anticancer Res 33: 3589-3602, 2013). […] That is, the neutralizing effect of single domain VHH or Fab fragments can be determined by checking whether the inhibition of the apoptosis is abolished again by the single domain VHH or Fab fragments to be tested. The quantitative employment of said test system requires linking several simple steps the skilled person is familiar with. In the first step the concentration of commercially available HOCl (or sodium hypochlorite that sufficiently forms HOCl in medium) is determined that generates a significant quantifiable apoptosis signal within a reasonable trial time (1-2 hours). […] As soon as the first two steps have been satisfactorily performed there can take place the actual test of the inhibiting effect of the single domain VHH or Fab fragments. For that, selected concentrations of the fragments to be tested are pre-incubated for 20 minutes with the optimal concentration of SOD determined in advance in step #2. Subsequently, said mixture is added to the test cells. Thereafter, HOCl is added and the apoptosis induction is determined. […]
The preparation was by immunizing alpacas with human SOD1 (SOD1=Cu/ZnSOD [EC 1.15.1.1] purified from human erythrocytes, obtained from Sigma (Schnelldorf), catalogue number S 9636) under supervision of a veterinary, obtaining RNA from the B cells of the animals, reverse transcription, cloning in E. coli and isolation via the phage display technology. […] In the following, this is expressed as ROS-dependent apoptosis induction. […]

T2 sequence (P00441 2-154 limits assumed): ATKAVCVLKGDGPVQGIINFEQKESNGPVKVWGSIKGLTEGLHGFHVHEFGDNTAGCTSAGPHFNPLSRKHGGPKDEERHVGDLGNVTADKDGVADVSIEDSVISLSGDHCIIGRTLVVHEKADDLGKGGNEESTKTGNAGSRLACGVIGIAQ

Row | Molecule | binding to human catalase [1] | neutralization (inhibition) of human catalase [2] | apoptosis induction in the presence of peroxynitrite scavenger FeTPPS ([3]; 25 μM FeTPPS) | apoptosis induction in the presence of NOX1 inhibitor AEBSF ([3]; 100 μM AEBSF) | apoptosis induction in the presence of singlet oxygen scavenger histidine ([3]; 2 mM histidine) | apoptosis induction in the presence of HOCl scavenger taurine ([3]; 50 mM taurine) | apoptosis induction in combination with 0.005 pg/ml of the complementary single domain VHH fragment ([3]; 3.5 hours, FIG. 18) | concentration at which both signal paths overlap ([3]; FIG. 14) [pg/mL] | concentration from which no substantial inhibition by FeTPPS but very strong inhibition by taurine (HOCl path) ([3]; FIG. 14) [pg/mL] | concentrations at which singlet oxygen seems to play a role ([3]; FIG. 14) [pg/mL] | concentration range of the second increase of the apoptosis ([3]; FIG. 14, not inhibited by taurine) [pg/mL] | optimum range of the apoptosis induction ([3]; FIGS. 14A and B, 3.5 hours) [pg/mL] | optimum conc. ([3]; Table 1, concentration necessary for optimum apoptosis induction, taken from FIGS. 13A, 13B, 15A, 15B, 20) [pg/mL] | optimum conc. ([3]; Table 2, FIG. 20 experiment, 3.5 hours) [pg/mL] | apoptosis induction in MKN-45 cells ([3]; increasing concentrations, 3-4 hours at 37° C., 5% CO2) | ROS signaling path induced ([3]; inhibitor analysis) | binding to human SOD1 [4] | neutralization (inhibition) of human SOD1 [5]
1 | aCATcb0972: single domain VHH fragment that binds to and neutralizes human catalase; SEQ ID NO: 10 (protein, catalase binding) VHH: MAQVQLVESGGGLVQAGGSLRLSCAASERTFNTYGMGWFRQAPGKEREFVATISWSGDSTYYADSVKGRFTISRDNAKNTMYLQMNSLKPEDTAVYYCNANSEYGDSYWGQGTQVTVSSKKKHHHHHH | bind to human catalase | neutralize it | only in the left part of the optimum curve results in a strong inhibition and then, changes the optimum curve of apoptosis induction into a plateau curve | inhibited by the NOX1 inhibitor AEBSF in the entire range of concentrations | does not result in an inhibition of apoptosis, but changes the optimum curve into a plateau curve | does not inhibit in the left range of concentrations of the optimum curve, but then results in a strong inhibition of the apoptosis in the entire further range of the optimum curve | noteworthy synergistic effect | 0.37 | ≥ 0.75 | > 0.75 | ≥ 6.2 | 0 to 6.2 | 0.4 | 0.17 | induces apoptosis in the form of an optimum curve and a subsequent second increase | via the NO/peroxynitrite and HOCl path |  | 
2 | aSODcb0987: single domain VHH fragment binding to human SOD1, but not neutralizing; SEQ ID NO: 14 (protein, SOD binding) VHH: MAQVQLVESGGGIVQPGGSLRLSCVASESISEIDAMYWHRQAPGKERELVAGITNDGTRYYADSVKGRFTISRDNAKSTLYLQMNSLKFEDTAMYYCAALPNPPPGYWGQGTQVTVSSKKKHHHHHH |  |  |  |  |  |  |  |  |  |  |  |  |  |  |  |  | bind to human SOD1 | do not neutralize it
